The record followed here is US20230070731A1, “COMPOSITIONS FOR SMALL MOLECULE CONTROL OF PRECISE BASE EDITING OF TARGET NUCLEIC ACIDS AND METHODS OF USE THEREOF” (THE TRUSTEES OF THE UNIVERSITY OF PENNSYLVANIA, priority 2020, published 2023).

Common to all, as to assay: cell-based or functional assay
In assay [1] the target is GFP11-AID*C (AID*-SPL2C) (human) (UniProt Q9GZX7).
Assay [2] has as its target AID′-seBE4max fragment containing FKBP12, the DNA deaminase C-terminus, nCas9, and two UGIs in series (human) (UniProt P62942).
Assay [3] has as its target evoA1-seBE4max fragment containing FKBP12, the DNA deaminase C-terminus, nCas9, and two UGIs in series (rat) (UniProt P62942).

In assay [1], “AID*N-optGFP1-10 (AID*-SPL2N) (from UniProt Q9GZX7 1-72)” had an in vitro deaminase activity on a labeled oligonucleotide substrate (EC50 of enzyme) (fold reduced from intact AID*) of 4.
For “AID′-seBE4max fragment containing the DNA deaminase N-terminus and FRB (from UniProt Q9GZX7 1-72; P42345 2021-2113)”, in assay [2], the GFP^off cells by flow cytometry, targeting sgRNA, no rapamycin came to 7% and the GFP^off cells by flow cytometry, targeting sgRNA, with rapamycin (200 nM) is 35%.
In assay [3], “evoA1-seBE4max fragment containing the DNA deaminase N-terminus and FRB (from UniProt P38483 2-78; P42345 2021-2113)” had a fold induction of base editing by rapamycin across seven genomic loci of 8.2 fold; an on-target base editing across seven genomic loci (deep sequencing), no rapamycin of 3%; an on-target base editing across seven genomic loci (deep sequencing), with rapamycin of 28%.
